The text below walks through data of paper PMC12431651.

Where two headings read alike, the source gives them in different places.

Experiment [1] has as its target MED25 ACID (Homo sapiens) (UniProt Q71SY5). The note with it: cited from earlier work.
For experiment [2] the target is unchanged. As to conditions: cited from earlier work. This is another data set of the same source.
The target is the same in experiment [3]. The experiment in a line: ITC. As to conditions: cited from earlier work.
For experiment [4] the target is unchanged. As to conditions: cited from earlier work. This is another data set of the same source.
The target in experiment [5] is His-tagged MED25 ACID (aa 389–543) (human) (UniProt Q71SY5). The experiment in a line: BLI; His-MED25 ACID (1 µM) captured on Ni-NTA biosensors, NS1 proteins as analytes in 2-fold dilutions; 20 mM Tris pH 8.0, 200 mM NaCl, 1 mM TCEP, 0.05% Tween, 25°C; global fit, 1:1 model for NS1, 2:1 heterogeneous model for NS1Δα3 and the point mutants. For orientation: In BLI a coated tip is dipped into the sample, and binding shifts an interference pattern.

Experiment [6] concerns the target MED25 ACID (H1 interface) (Homo sapiens) (UniProt Q71SY5). The experiment in a line: NMR. The note with it: cited from earlier work.
Experiment [7] deals with MED25 ACID (Homo sapiens) (UniProt Q71SY5). The experiment in a line: NMR. The note with it: cited from earlier work.
For experiment [8] the target is unchanged. The note with it: cited from earlier work. The source holds these as a separate data set.
Experiment [9] has the same target. As to conditions: cited from earlier work. This is another data set of the same source.
Experiment [10] shares this target. The note with it: cited from earlier work. The source holds these as a separate data set.
The target is the same in experiment [11]. As to conditions: cited from earlier work. This is another data set of the same source.
For experiment [12] the target is unchanged. The note with it: cited from earlier work. The source holds these as a separate data set.

Sequence of MED25 ACID (Homo sapiens) (Q71SY5 389-543): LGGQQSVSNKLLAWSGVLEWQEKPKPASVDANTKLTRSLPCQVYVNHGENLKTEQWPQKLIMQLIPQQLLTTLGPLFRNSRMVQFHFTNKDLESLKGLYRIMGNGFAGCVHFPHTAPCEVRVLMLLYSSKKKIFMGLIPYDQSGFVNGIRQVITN
Sequence of His-tagged MED25 ACID (aa 389–543) (human) (Q71SY5 389-543): as above
Sequence of p53 TAD2 (P04637 38-61): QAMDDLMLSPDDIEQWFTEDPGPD
Sequence of ERM TAD (P41161 38-68): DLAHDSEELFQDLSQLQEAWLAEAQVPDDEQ
Sequence of ATF6α TAD (P18850 40-66): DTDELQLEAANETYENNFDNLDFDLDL
Sequence of p53 TAD (P04637 1-61): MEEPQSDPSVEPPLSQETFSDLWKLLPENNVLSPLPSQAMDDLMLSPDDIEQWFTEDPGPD
Sequence of MED25 ACID (H1 interface) (Homo sapiens) (Q71SY5 389-543): as the sequence (Q71SY5 389-543) above

Take ATF6α TAD (from UniProt P18850): the Kd in experiment [1] was 500 nM.
Turning to ERM TAD (from UniProt P41161), the dissociation constant (Kd) in experiment [2] is 600 nM.
In the case of NS1 (from UniProt P0DOE8), the figures for the Kd in experiment [3] and in [4] were 15 nM and 20 nM, respectively.
In experiment [5], NS1 E110A (natural protein) yielded a Kd1 (binding mode 1) of 1630 nM, a Kd2 (binding mode 2) of 1320 nM, a ka1 (binding mode 1) of 120000 M⁻¹ s⁻¹ and a ka2 (binding mode 2) of 3000 M⁻¹ s⁻¹. In experiment [5], this substance came in with a kdis1 (binding mode 1) of 0.19 s⁻¹ and a kdis2 (binding mode 2) of 0.0034 s⁻¹.
Turning to NS1 F56A (natural protein), in experiment [5], the Kd1 (binding mode 1) stood at 333 nM, the Kd2 (binding mode 2) came to 72 nM, the ka1 (binding mode 1) turned out to be 130000 M⁻¹ s⁻¹ and the ka2 (binding mode 2) came out at 20000 M⁻¹ s⁻¹. Besides, in experiment [5], the kdis1 (binding mode 1) worked out at 0.043 s⁻¹ and the kdis2 (binding mode 2) amounted to 0.0014 s⁻¹.
In experiment [5], NS1 I54A (natural protein) had a Kd1 (binding mode 1) of 71.2 nM, a Kd2 (binding mode 2) of 28.3 nM, a ka1 (binding mode 1) of 200000 M⁻¹ s⁻¹ and a ka2 (binding mode 2) of 80000 M⁻¹ s⁻¹. In [5], the kdis1 (binding mode 1) came out at 0.014 s⁻¹ and the kdis2 (binding mode 2) is 0.0023 s⁻¹.
Consider NS1 K112A (natural protein), for which, in [5], the Kd1 (binding mode 1) was 68.1 nM, the Kd2 (binding mode 2) was 7.5 nM, the ka1 (binding mode 1) was 160000 M⁻¹ s⁻¹ and the ka2 (binding mode 2) came to 140000 M⁻¹ s⁻¹. Also, in experiment [5], the kdis1 (binding mode 1) turned out to be 0.011 s⁻¹ and the kdis2 (binding mode 2) is 0.0011 s⁻¹.
NS1 M122A (natural protein): in experiment [5], the Kd1 (binding mode 1) was 42.3 nM, the Kd2 (binding mode 2) is 9.4 nM, the ka1 (binding mode 1) was found to be 210000 M⁻¹ s⁻¹ and the ka2 (binding mode 2) amounted to 120000 M⁻¹ s⁻¹. In addition, in [5], the kdis1 (binding mode 1) stood at 0.009 s⁻¹ and the kdis2 (binding mode 2) came out at 0.0011 s⁻¹.
With NS1 α3 peptide (from UniProt P0DOE8), the figures for the Kd in experiment [6] and in experiment [7] were 500000 nM and 10000 nM, respectively.
As for “NS1Δα3 (NS1 aa 1–116) (domain or fragment)”, in experiment [5], the Kd1 (binding mode 1) worked out at 615 nM, the Kd2 (binding mode 2) came to 850 nM, the ka1 (binding mode 1) worked out at 80000 M⁻¹ s⁻¹ and the ka2 (binding mode 2) is 3000 M⁻¹ s⁻¹. Also, in experiment [5], the kdis1 (binding mode 1) came out at 0.05 s⁻¹ and the kdis2 (binding mode 2) was 0.0024 s⁻¹.
Regarding “RSV NS1, full-length wild type (aa 1–139) (natural protein)”, in experiment [5], the dissociation constant Kd is 16.5 nM, the off-rate (koff) turned out to be 0.002 s⁻¹ and the kon came out at 120000 M⁻¹ s⁻¹.
In the case of VP16 TAD1 (from UniProt P06492), the Kd in [8] and in experiment [9] was 1600 nM each time.
Consider VP16 TAD (from UniProt P06492), for which, in [10], the Kd is 50 nM.
For p53 TAD2 (from UniProt P04637), in [11], the Kd is 8100 nM.
Turning to p53 TAD (from UniProt P04637), in experiment [12], the Kd is 800 nM.

What is called Kd is the equilibrium constant for the complex coming apart. One may read the koff as the rate constant with which the complex falls apart. High values mean fast dissociation, low ones slow dissociation. A word on the kon: it is the second-order rate constant of association. A lower kon goes with slower complex formation.
